Reference: patent US20230310629A1 (Merck KGaA, published 2023)
Each block holds one binder with its values, some of them ahead of it. Where no end group is shown, it is not given here.

Experiments:
[1] = target: T1, fragment of human MUC1 immunodominant core peptide (APDTRPAPGSTAPPA) (human); experiment: co-crystallisation, X-ray structure
T1 construct: also called MUC1 peptide; human MUC1 truncated peptide
T1 peptide: APDTRPAPGSTAPPA

[2] = target: T2, biotinylated synthetic VNTR peptide of MUC1 (APDTRPAPGSTAPPAC-biotin) (human); experiment: Biacore, human MUC1-VNTR peptide
T2 construct: also called human MUC1-VNTR peptide
T2 peptide: APDTRPAPGSTAPPAC-biotin

[3] = target: T2, biotinylated synthetic VNTR peptide of …; experiment: Biacore, human MUC1-VNTR; ka1
[4] = target: T2, biotinylated synthetic VNTR peptide of …; experiment: Biacore, human MUC1-VNTR; kd1

binding result [1]: binds
B1: H02-scFv, the MUC1-binding arm of Molecule 1 (scFv)
scFv: QMQLVQSEAELKKPGASVKVSCKASGYSFTSHFMHWVRQAPGQGLEWMGWIDPVTGGTKYAQNFQGWVTMTRDTSIRTAYLELSRLRSDDTAMYYCAREARADRGQFDKWGQGTLVTVASGGGGSGGGGSGGGGSQSVLTQPPSVSVAPGKTARITCGGNNIGSKSVHWYQQKPGQAPALVIYYGSNRPSGIPERFSGSNSGNTATLTISRVEAGDEADYYCQVWDSSSDWVFGGGTKLTVL

B2: 1993-H02 with an HT186-D11 light chain (anti-MUC1 antibody H02) (antibody, V domains shown)
VH: QMQLVQSEAELKKPGASVKVSCKASGYSFTSHFMHWVRQAPGQGLEWMGWIDPVTGGTKYAQNFQGWVTMTRDTSIRTAYLELSRLRSDDTAMYYCAREARADRGQFDKWGQGTLVTVAS
VL: QSVLTQPPSVSVAPGKTARITCGGNNIGSKSVHWYQQKPGQAPALVIYYGSNRPSGIPERFSGSNSGNTATLTISRVEAGDEADYYCQVWDSSSDWVFGGGTKLTVL
notes: One molecule is used here for both experiments
Kd [2]: 0.901 nM | kon [3]: 126000 M⁻¹ s⁻¹ | koff [4]: 0.0017 s⁻¹
